The test system of this series is FasR wild-type (FasRwt) (Mycobacterium tuberculosis H37Rv). Description: EMSA.

Experimental findings from article PMC7382501 are described below.

By Kd is commonly meant the equilibrium constant for the complex coming apart. A lower Kd goes with a tighter complex.

Take PfasMT promoter fragment (398 bp): the Kd turned out to be 83 nM.
